In article PMC6698644 (Nucleic Acids Research, 2019):
Residue numbers refer to the chain shown, from its start. Names and notes keep the numbering of the source.

How the values were obtained:
crystal structure = target: the molecule itself; assay: crystal structure
LeuO-S120D-His6 [1] = target: T1, LeuO-S120D-His6 (Escherichia coli K12, UniProt P10151 1-314, S120D); assay: SPR
T1 sequence: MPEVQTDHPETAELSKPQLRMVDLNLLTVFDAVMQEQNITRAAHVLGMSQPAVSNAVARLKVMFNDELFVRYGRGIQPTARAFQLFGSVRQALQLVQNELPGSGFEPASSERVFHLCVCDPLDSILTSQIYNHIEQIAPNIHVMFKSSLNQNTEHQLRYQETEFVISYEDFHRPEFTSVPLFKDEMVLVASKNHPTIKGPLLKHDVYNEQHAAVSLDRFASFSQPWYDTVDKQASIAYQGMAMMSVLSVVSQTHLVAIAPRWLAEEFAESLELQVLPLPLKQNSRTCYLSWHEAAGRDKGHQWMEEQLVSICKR

LeuO-His6 (wild type) [2] = target: T2, LeuO-His6 (wild type) (Escherichia coli K12, UniProt P10151 1-314); assay: SPR
T2 sequence: T1 sequence with D120S

LeuO-S120D-His6 [3] = target: T1, LeuO-S120D-His6; assay: SPR; remark: listed apart in the source
LeuO-DBD-His6 = target: T3, LeuO-DBD-His6 (Escherichia coli K12, UniProt P10151 1-101); assay: SPR
T3 sequence: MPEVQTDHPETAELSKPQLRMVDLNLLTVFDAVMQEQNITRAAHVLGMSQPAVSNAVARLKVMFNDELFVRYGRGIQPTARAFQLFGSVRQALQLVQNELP

LeuO-His6 (wild type) [4] = target: T2, LeuO-His6 (wild type); assay: SPR; remark: listed apart in the source
SEC = target: the molecule itself; assay: SEC
LeuO-S120D-His6 [5] = target: T1, LeuO-S120D-His6; assay: gel filtration
LeuO-His6 (wild type) [6] = target: T2, LeuO-His6 (wild type); assay: gel filtration

B1: LeuO-S120D effector-binding domain, C-terminally histidine-tagged (LeuO-S120D-EBD_(His6)) (domain or fragment, Escherichia coli)
chain: SSERVFHLCVCDPLDSILTSQIYNHIEQIAPNIHVMFKSSLNQNTEHQLRYQETEFVISYEDFHRPEFTSVPLFKDEMVLVASKNHPTIKGPLLKHDVYNEQHAAVSLDRFASFSQPWYDTVDKQASIAYQGMAMMSVLSVVSQTHLVAIAPRWLAEEFAESLELQVLPLPLKQNSRTCYLSWHEAAGRDKGHQWMEEQLVSICKR
binding result (crystal structure): binds

B2: SPR fragment B, cas core-site (25 bp) (dsDNA)
DNA 1: GGGGGTTTATATTCACAGTATGAATATTTTGGGGG
DNA 2: CCCCCAAAATATTCATACTGTGAATATAAACCCCC
Kd (LeuO-S120D-His6 [1]): 0.6 nM | Kd (LeuO-His6 (wild type) [2]): 0.9 nM

B3: SPR fragment A, cas LeuO site II (60 bp) (dsDNA)
DNA 1: GGGGGTTTATATTCACAGTATGAATATTTTATGTAATAAAATTCATGGTAATTATTATAACTAAAGGGGG
DNA 2: CCCCCTTTAGTTATAATAATTACCATGAATTTTATTACATAAAATATTCATACTGTGAATATAAACCCCC
Kd (LeuO-S120D-His6 [1]): 0.2 nM | Kd (LeuO-His6 (wild type) [2]): 0.7 nM

B4: SPR fragment C, scrambled (60 bp) (dsDNA)
DNA 1: GGGGGGTAAATTACATAATGCGATTAAAATTTATTTTCAAAAGTTTAATTTAACATTGAATTTATGGGGG
DNA 2: CCCCCATAAATTCAATGTTAAATTAAACTTTTGAAAATAAATTTTAATCGCATTATGTAATTTACCCCCC
binding result (LeuO-S120D-His6 [3]): no binding | binding result (LeuO-DBD-His6): no binding | binding result (LeuO-His6 (wild type) [4]): no binding

B5: LeuO, C-terminally histidine-tagged (LeuO_(His6)) (natural protein, Escherichia coli, UniProt P10151 1-314, looked up)
chain: T1 sequence with D120S
stoichiometry N (SEC): 4

B6: LeuO-S120D, C-terminally histidine-tagged (LeuO-S120D_(His6)) (natural protein, Escherichia coli, UniProt P10151 1-314, looked up)
chain: T1 sequence
stoichiometry N (SEC): 4

B7: gel filtration fragment, cas LeuO site II (60 bp) (dsDNA)
DNA 1: TTTATATTCACAGTATGAATATTTTATGTAATAAAATTCATGGTAATTATTATAACTAAA
DNA 2: TTTAGTTATAATAATTACCATGAATTTTATTACATAAAATATTCATACTGTGAATATAAA
binding result (LeuO-S120D-His6 [5]): binds | binding result (LeuO-His6 (wild type) [6]): binds
